Data reported in PMC10939263 (2024).

B1: SRC kinase associated phosphoprotein 1 (SKAP1), wild type, N2-fused [human] / LYN, C1-fused [not stated] (parent complex)
chain 1: MQAAALPEEIRWLLEDAEEFLAEGLRNENLSAVARDHRDHILRGFQQIKARYYWDFQPQGGDIGQDSSDDNHSGTLGLSLTSDAPFLSDYQDEGMEDIVKGAQELDNVIKQGYLEKKSKDHSFFGSEWQKRWCVVSRGLFYYYANEKSKQPKGTFLIKGYGVRMAPHLRRDSKKESCFELTSQDRRSYEFTATSPAEARDWVDQISFLLKDLSSLTIPYEEDEEEEEKEETYDDIDGFDSPSCGSQCRPTILPGSVGIKEPTEEKEEEDIYEVLPDEEHDLEEDESGTRRKGVDYASYYQGLWDCHGDQPDELSFQRGDLIRILSKEYNMYGWWVGELNSLVGIVPKEYLTTAFEVEER
chain 2: MGCIKSKGKDSLSDDGVDLKTQPVRNTERTIYVRDPTSNKQQRPVPESQLLPGQRFQTKDPEEQGDIVVALYPYDGIHPDDLSFKKGEKMKVLEEHGEWWKAKSLLTKKEGFIPSNYVAKLNTLETEEWFFKDITRKDAERQLLAPGNSAGAFLIRESETLKGSFSLSVRDFDPVHGDVIKHYKIRSLDNGGYYISPRITFPCISDMIKHYQKQADGLCRRLEKACISPKPQKPWDKDAWEIPRESIKLVKRLGAGQFGEVWMGYYNNSTKVAVKTLKPGTMSVQAFLEEANLMKTLQHDKLVRLYAVVTREEPIYIITEYMAKGSLLDFLKSDEGGKVLLPKLIDFSAQIAEGMAYIERKNYIHRDLRAANVLVSESLMCKIADFGLARVIEDNEYTAREGAKFPIKWTAPEAINFGCFTIKSDVWSFGILLYEIVTYGKIPYPGRTNADVMTALSQGYRMPRVENCPDELYDIMKMCWKEKAEERPTFDYLQSVLDDFYTATEGQYQQQP
B2: SRC kinase associated phosphoprotein 1 (SKAP1), wild type, N2-fused [human] / FRK, C1-fused [not stated] (parent complex)
chain 1: B1 chain 1
chain 2: MSNICQRLWEYLEPYLPCLSTEADKSTVIENPGALCSPQSQRHGHYFVALFDYQARTAEDLSFRAGDKLQVLDTLHEGWWFARHLEKRRDGSSQQLQGYIPSNYVAEDRSLQAEPWFFGAIGRSDAEKQLLYSENKTGSFLIRESESQKGEFSLSVLDGAVVKHYRIKRLDEGGFFLTRRRIFSTLNEFVSHYTKTSDGLCVKLGKPCLKIQVPAPFDLSYKTVDQWEIDRNSIQLLKRLGSGQFGEVWEGLWNNTTPVAVKTLKPGSMDPNDFLREAQIMKNLRHPKLIQLYAVCTLEDPIYIITELMRHGSLQEYLQNDTGSKIHLTQQVDMAAQVASGMAYLESRNYIHRDLAARNVLVGEHNIYKVADFGLARVFKVDNEDIYESRHEIKLPVKWTAPEAIRSNKFSIKSDVWSFGILLYEIITYGKMPYSGMTGAQVIQMLAQNYRLPQPSNCPQQFYNIMLECWNAEPKERPTFETLRWKLEDYFETDSSYSDANNFIR
B3: SRC kinase associated phosphoprotein 1 (SKAP1), wild type, N2-fused [human] / BLK, C1-fused [not stated] (parent complex)
chain 1: B1 chain 1
chain 2: not shown
B4: SRC kinase associated phosphoprotein 1 (SKAP1), wild type, N2-fused [human] / FYN (isoform without exon 7), C1-fused [not stated] (parent complex)
chain 1: B1 chain 1
chain 2: not shown
B5: SRC kinase associated phosphoprotein 1 (SKAP1), wild type, N2-fused [human] / SRMS, C1-fused [not stated] (parent complex)
chain 1: B1 chain 1
chain 2: MEPFLRRRLAFLSFFWDKIWPAGGEPDHGTPGSLDPNTDPVPTLPAEPCSPFPQLFLALYDFTARCGGELSVRRGDRLCALEEGGGYIFARRLSGQPSAGLVPITHVAKASPETLSDQPWYFSGVSRTQAQQLLLSPPNEPGAFLIRPSESSLGGYSLSVRAQAKVCHYRVSMAADGSLYLQKGRLFPGLEELLTYYKANWKLIQNPLLQPCMPQKAPRQDVWERPHSEFALGRKLGEGYFGEVWEGLWLGSLPVAIKVIKSANMKLTDLAKEIQTLKGLRHERLIRLHAVCSGGEPVYIVTELMRKGNLQAFLGTPEGRALRLPPLLGFACQVAEGMSYLEEQRVVHRDLAARNVLVDDGLACKVADFGLARLLKDDIYSPSSSSKIPVKWTAPEAANYRVFSQKSDVWSFGVLLHEVFTYGQCPYEGMTNHETLQQIMRGYRLPRPAACPAEVYVLMLECWRSSPEERPSFATLREKLHAIHRCHP

Variants of: B1
Assay: luciferase complementation assay (normalized luciferase ratio, NLR); HEK293T cells; one experiment; read off a plot
chain 1 W333K gave a ratio to parent of about 2.

Variants of: B2
Assay: as above
chain 1 MQAAALPEEIRWLLEDAEEFLAEGLRNENLSAVARDHRDHILRGFQQIKARYYWDFQPQGGDIGQDSSDDNHSGTLGLSLTSDAPFLSDYQDEGMEDIVKGAQELDNVIKQGYLEKKSKDHSFFGSEWQKRWCVVSRGLFYYYANEKSKQPKGTFLIKGYGVRMAPHLRRDSKKESCFELTSQDRRSYEFTATSPAEARDWVDQISFLLKDLSSLTIPYEEDEEEEEKEETYDDIDGFDSPSCGSQCRPTILPGSVGIKEPTEEKEEEDIYEVLPDEEHDLEEDESGTRRKGVDYASYYQGLWDCHGDQPDELSFQRGDLIRILSKEYNMYGKWVGELNSLVGIVPKEYLTTAFEVEER [chain 1 W333K] showed a ratio to parent of about 1.2. Work on chain 1 MQAAALPEEIRWLLEDAEEFLAEGLRNENLSAVARDHRDHILRGFQQIKARYYWDFQPQGGDIGQDSSDDNHSGTLGLSLTSDAPFLSDYQDEGMEDIVKGAQELDNVIKQGYLEKKSKKHSFFGSEWQKRWCVVSRGLFYYYANEKSKQPKGTFLIKGYGVRMAPHLRRDSKKESCFELTSQDRRSYEFTATSPAEARDWVDQISFLLKDLSSLTIPYEEDEEEEEKEETYDDIDGFDSPSCGSQCRPTILPGSVGIKEPTEEKEEEDIYEVLPDEEHDLEEDESGTRRKGVDYASYYQGLWDCHGDQPDELSFQRGDLIRILSKEYNMYGWWVGELNSLVGIVPKEYLTTAFEVEER [chain 1 D120K] yielded a ratio to parent of about 1.9.

Variants of: B3
Assay: as above
With chain 1 W333K the ratio to parent was about 1.8.

Variants of: B4
Assay: as above
chain 1 W333K showed a ratio to parent of about 1.2.

Variants of: B5
Assay: as above
With chain 1 MQAAALPEEIRWLLEDAEEFLAEGLRNENLSAVARDHRDHILRGFQQIKARYYWDFQPQGGDIGQDSSDDNHSGTLGLSLTSDAPFLSDYQDEGMEDIVKGAQELDNVIKQGYLEKKSKDHSFFGSEWQKRWCVVSRGLFYYYANEKSKQPKGTFLIKGYGVRMAPHLRRDSKKESCFELTSQDRRSYEFTATSPAEARDWVDQISFLLKDLSSLTIPYEEDEEEEEKEETYDDIDGFDSPSCGSQCRPTILPGSVGIKEPTEEKEEEDIYEVLPDEEHDLEEDESGTRRKGVDYASYYQGLWDCHGDQPDELSFQRGDLIRILSKEYNMYGKWVGELNSLVGIVPKEYLTTAFEVEER [chain 1 W333K] the ratio to parent was about 1.3.
